Data: US20240269283A1 (NINGBO T MAXIMUM BIOPHARMACEUTICALS, published 2024)
Changes are numbered by the printed parent chain. Blank lines part the entries; values can stand above or below the binder they belong to.

How the values were obtained:
[1] = molecular target: T1, B7H3-Fc recombinant protein (human, UniProt Q5ZPR3 29-461); assay: SPR, Biacore 8K, CM5 chip
T1 construct: also called human B7H3 protein; not shown: Fc part of the B7H3-Fc recombinant protein
T1 sequence (looked up): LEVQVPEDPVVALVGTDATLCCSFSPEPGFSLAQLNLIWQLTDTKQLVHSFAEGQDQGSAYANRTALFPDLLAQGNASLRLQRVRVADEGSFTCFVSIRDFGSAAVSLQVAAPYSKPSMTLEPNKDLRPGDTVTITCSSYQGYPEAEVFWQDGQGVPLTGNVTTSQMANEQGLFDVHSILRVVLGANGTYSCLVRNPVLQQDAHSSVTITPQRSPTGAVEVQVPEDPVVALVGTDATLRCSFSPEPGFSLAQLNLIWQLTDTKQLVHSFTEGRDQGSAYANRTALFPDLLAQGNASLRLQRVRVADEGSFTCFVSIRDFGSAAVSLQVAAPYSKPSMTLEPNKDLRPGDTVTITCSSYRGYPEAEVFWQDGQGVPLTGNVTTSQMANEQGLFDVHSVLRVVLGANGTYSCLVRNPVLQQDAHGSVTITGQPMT
Procedure: The mouse anti-human IgG (Fc) antibody was diluted with the immobilization reagent (sodium acetate, pH 5.0): 950 μL of the immobilization reagent was added to 50 μL of the mouse anti-human IgG (Fc) antibody. The dilution was used for immobilization in eight channels. First, the surface of the CM5 chip was activated for 360 s with EDC and NHS at a flow rate of 10 μL/min. Then, the mouse anti-human IgG (Fc) antibody was injected into the channels (channels 1-8, Fc1,2) at a flow rate of 10 μL/min for about 360 s, with the level of immobilization at about 7000 to 14,000 RU. Finally, the chip was blocked with ethanolamine at 10 μL/min for 420 s.
The human B7H3 protein was diluted 2-fold with the running reagent. The diluted human B7H3 protein was injected into the experimental channels and the reference channels in sequence at a flow rate of 30 μL/min, and corresponding periods of association and dissociation were allowed. The association and dissociation steps were all performed in the running reagent. After each concentration analysis, the chip needed to be regenerated with magnesium chloride at a flow rate of 20 μL/min for 30 s to wash away the ligand and undissociated analyte. For the next concentration analysis, the experimental channels needed to recapture the same amount of ligand.
A KD value was calculated for each sample using Biacore 8K analysis software Biacore Insight Evaluation Software. The reference channels (Fc1) were used for background subtraction.

B7H3 on U251 cells = molecular target: T2, B7H3 on U251 cells (UniProt Q5ZPR3 29-534, limits assumed); assay: flow cytometry on U251 cells (expressing B7H3), MFI against antibody concentration
T2 construct: whole, on cells; also called U251 cells (expressing B7H3)
T2 sequence (looked up): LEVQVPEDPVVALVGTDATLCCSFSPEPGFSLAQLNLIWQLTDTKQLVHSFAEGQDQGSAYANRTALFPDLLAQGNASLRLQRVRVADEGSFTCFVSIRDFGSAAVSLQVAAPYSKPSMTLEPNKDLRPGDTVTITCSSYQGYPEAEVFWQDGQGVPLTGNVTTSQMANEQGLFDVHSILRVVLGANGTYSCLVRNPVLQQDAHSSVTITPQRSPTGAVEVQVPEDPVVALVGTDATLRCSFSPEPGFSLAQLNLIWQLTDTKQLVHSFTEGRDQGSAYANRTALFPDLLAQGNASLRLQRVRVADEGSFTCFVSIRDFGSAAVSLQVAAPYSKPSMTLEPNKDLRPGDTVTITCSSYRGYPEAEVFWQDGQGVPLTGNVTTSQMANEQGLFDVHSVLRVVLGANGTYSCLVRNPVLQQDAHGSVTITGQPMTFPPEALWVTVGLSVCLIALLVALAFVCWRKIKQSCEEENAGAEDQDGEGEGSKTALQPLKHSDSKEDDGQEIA
Procedure: Recombinant antibodies with different concentrations were incubated with U251 cells (expressing B7H3), and the binding of the antibodies to the cell surface was assayed by the mean fluorescence intensity (MFI) of the cells. From the results shown in FIG. 2, the 1A5 and 1G7 antibodies and the humanized antibodies thereof can effectively bind to the surface of the U251 cells.

B1: B7H3 single-domain antibody 1A5 (VHH)
VHH: QAQLVESGGGLVQTGGSLRLSCAASGRIFSNYSVGWFRQAPGKEREFVAAIIWSTGTTNLADPMKGRFTISRDNAKNTVVLQMNSLKPEDTAIYYCAASFKYSGIYGREADFGSWGQGTQVTVSS
notes: Called a single-domain antibody / recombinant antibody; also called 1A5 antibody; anti-B7H3 VHH antibody
Kd [1]: 7.39 nM | koff [1]: 0.0045 s⁻¹ | kon [1]: 609000 M⁻¹ s⁻¹ | binding result (B7H3 on U251 cells): binds

B3: hu1A5 (VHH)
VHH: QVQLVESGGGLVQPGGSLRLSCAASGRIFSNYSVGWFRQAPGKEREFVAAIIWSTGTTYYADSVKGRFTISRDNSKNTLYLQMNSLRAEDTAVYYCAASFKYSGIYGREADFGSWGQGTLVTVSS
notes: a member of the group m3 (humanized antibodies of 1A5 and 1G7); also called humanized antibody of 1A5
binding result (B7H3 on U251 cells): binds

Continued, values first:

Kd [1]: 5.38 nM | koff [1]: 0.00618 s⁻¹ | kon [1]: 1.15e+06 M⁻¹ s⁻¹ | EC50 (read off the curve) (B7H3 on U251 cells): ~4 µg/mL
B2: B7H3 single-domain antibody 1G7 (VHH)
VHH: AVQLVESGGGLVQTGGSLRLSCADSGRIFSNYAMGWFRQAPGKEREFVAAIIGSTGTVNYADSMKGRFTISRDNAKNTVVLQMNSLKPEDTAIYYCAASFRYSGIYGREADFVSWGQGTQVTVSS
notes: Called a single-domain antibody / recombinant antibody; also called 1G7 antibody; anti-B7H3 VHH antibody

binding result (B7H3 on U251 cells): binds
B4: hu1G7 (VHH)
VHH: B3 VHH with Q1A, S33A, V34M, W53G, T58V, K101R, G113V
notes: a member of the group m3 (humanized antibodies of 1A5 and 1G7); also called humanized antibody of 1G7
